From patent US20040018971A1 (published 2004)

Legend:
[1] = biological target: HLA-A*1101 (human); assay: inhibition of 125I-labelled probe peptide binding to purified HLA-A*1101, gel filtration
[2] = biological target: HLA-B*5401 (human); assay: competition vs 125I-labeled standard peptide, purified HLA
[3] = biological target: HLA-B*5101 (human); assay: as above
[4] = biological target: HLA-B*0702 (human); assay: as above
[5] = biological target: HLA-B*5301 (human); assay: as above
[6] = biological target: HLA-A*1101 (human); assay: inhibition of 125I-labelled standard peptide binding to purified HLA, gel filtration
[7] = biological target: HLA-A*0301 (human); assay: as above
[8] = biological target: HLA-B*0702 (human); assay: competition with 125I probe peptide, purified HLA
[9] = biological target: HLA-B*5101 (human); assay: competition with 125I probe peptide, purified HLA
[10] = biological target: T1, HLA-A*0201 (human); assay: competition with 125I-labelled standard peptide 941.01 ([..]) on purified HLA, gel filtration
T1 construct: also called HLA-A2.1

[11] = biological target: HLA-A*6801 (human); assay: inhibition of 125I probe peptide binding to purified HLA
[12] = biological target: HLA-A*0301 (human); assay: as above

## GSGAFGTVYK [HER2/neu peptide, position 727, 10 amino acids]
[1]
  relative binding ratio (IC50 of standard peptide / IC50 of test peptide): 0.13 relative binding ratio

B1: Her2/neu.649.I9 (peptide)
peptide: SPLTSIISI
notes: 9-mer analog of the HER2/neu peptide starting at position 649
[2]
  IC50: 217 nM
[3]
  IC50: 275 nM
[4]
  IC50: 86 nM
[5]
  IC50: 3440 nM

## ETLEEITGY [HER2/neu peptide, position 401, 9 amino acids]
[1]
  relative binding ratio (IC50 of standard peptide / IC50 of test peptide): 0.0002 relative binding ratio

## RILKETELR (Synthetic A3 supermotif peptide) [HER2/neu peptide, position 713, 9 amino acids]
[6]
  relative binding ratio: 0.0038 ratio (IC50 of standard peptide / IC50 of test peptide)
[7]
  relative binding ratio: 0.0007 ratio (IC50 of standard peptide / IC50 of test peptide)

## GGAVENPEY [HER2/neu peptide, position 1188, 9 amino acids]
[1]
  relative binding ratio (IC50 of standard peptide / IC50 of test peptide): 0.0001 relative binding ratio

## ELMTFGAKPY [HER2/neu peptide, position 914, 10 amino acids]
[1]
  relative binding ratio (IC50 of standard peptide / IC50 of test peptide): 0.0002 relative binding ratio

## NIQEFAGCK (Synthetic A3 supermotif peptide) [HER2/neu peptide, position 360, 9 amino acids]
[6]
  relative binding ratio: 0.0036 ratio (IC50 of standard peptide / IC50 of test peptide)
[7]
  relative binding ratio: 0.0002 ratio (IC50 of standard peptide / IC50 of test peptide)

## GILIKRRQQK [HER2/neu peptide, position 672, 10 amino acids]
[1]
  relative binding ratio (IC50 of standard peptide / IC50 of test peptide): 0.0014 relative binding ratio

## GMEHLREVR [HER2/neu peptide, position 346, 9 amino acids]
[1]
  relative binding ratio (IC50 of standard peptide / IC50 of test peptide): -0.0002 relative binding ratio

## PAGATLERPK (Synthetic A3 supermotif peptide) [HER2/neu peptide, position 1162, 10 amino acids]
[6]
  relative binding ratio: -0.0002 ratio (IC50 of standard peptide / IC50 of test peptide)
[7]
  relative binding ratio: -0.0002 ratio (IC50 of standard peptide / IC50 of test peptide)

## EVTAEDGTQR [HER2/neu peptide, position 321, 10 amino acids]
[1]
  relative binding ratio (IC50 of standard peptide / IC50 of test peptide): 0.0001 relative binding ratio

## SSEDCQSLTR (Synthetic A3 supermotif peptide) [HER2/neu peptide, position 208, 10 amino acids]
[6]
  relative binding ratio: 0.002 ratio (IC50 of standard peptide / IC50 of test peptide)
[7]
  relative binding ratio: -0.0002 ratio (IC50 of standard peptide / IC50 of test peptide)

B2: Her2/neu.698.F1I9 (peptide)
peptide: FPLTPSGAI
notes: 9-mer analog of the HER2/neu peptide starting at position 698
[2]
  IC50: 1.9 nM
[3]
  IC50: 9.2 nM
[4]
  IC50: 0.9 nM

## GLGISWLGLR [HER2/neu peptide, position 447, 10 amino acids]
[1]
  relative binding ratio (IC50 of standard peptide / IC50 of test peptide): 0.0001 relative binding ratio

## GAMPNQAQMR [HER2/neu peptide, position 704, 10 amino acids]
[1]
  relative binding ratio (IC50 of standard peptide / IC50 of test peptide): 0.0041 relative binding ratio

## ESMPNPEGR [HER2/neu peptide, position 280, 9 amino acids]
[1]
  relative binding ratio (IC50 of standard peptide / IC50 of test peptide): -0.0002 relative binding ratio

## PLQRLRIVR (Synthetic A3 supermotif peptide) [HER2/neu peptide, position 95, 9 amino acids]
[6]
  relative binding ratio: 0.0001 ratio (IC50 of standard peptide / IC50 of test peptide)
[7]
  relative binding ratio: 0.0002 ratio (IC50 of standard peptide / IC50 of test peptide)

B3: Her2/neu.605 (peptide)
peptide: KPDLSYMPI
notes: native HER2/neu peptide from position 605
[8]
  IC50: 76 nM
[9]
  IC50: 2500 nM

## GVVFGILIK (T0001 prints T at residue 673) [HER2/neu peptide, position 668, 9 amino acids]
[1]
  relative binding ratio (IC50 of standard peptide / IC50 of test peptide): 0.089 relative binding ratio

B4: Her2/neu.760.F1, 8-mer (peptide)
peptide: FPKANKEI
notes: 8-mer analog of the HER2/neu peptide starting at position 760; same label as the 9-mer in r54
[2]
  IC50: 3120 nM
[3]
  IC50: 2500 nM
[4]
  IC50: 0.16 nM

## VLIAHNQVR (Synthetic A3 supermotif peptide) [HER2/neu peptide, position 84, 9 amino acids]
[6]
  relative binding ratio: 0.0007 ratio (IC50 of standard peptide / IC50 of test peptide)
[7]
  relative binding ratio: 0.0033 ratio (IC50 of standard peptide / IC50 of test peptide)

## ETEYHADGGK [HER2/neu peptide, position 874, 10 amino acids]
[1]
  relative binding ratio (IC50 of standard peptide / IC50 of test peptide): 0.0001 relative binding ratio

## FSRMARDPQR [HER2/neu peptide, position 976, 10 amino acids]
[1]
  relative binding ratio (IC50 of standard peptide / IC50 of test peptide): 0.001 relative binding ratio

## QALLHTANR (Synthetic A3 supermotif peptide) [HER2/neu peptide, position 491, 9 amino acids]
[6]
  relative binding ratio: 0.001 ratio (IC50 of standard peptide / IC50 of test peptide)
[7]
  relative binding ratio: 0.0046 ratio (IC50 of standard peptide / IC50 of test peptide)

## GLPREYVNAR [HER2/neu peptide, position 549, 10 amino acids]
[1]
  relative binding ratio (IC50 of standard peptide / IC50 of test peptide): 0.0003 relative binding ratio

## ELHCPALVTY [HER2/neu peptide, position 265, 10 amino acids]
[1]
  relative binding ratio (IC50 of standard peptide / IC50 of test peptide): 0.0002 relative binding ratio

## TLIDTNRSR (Synthetic A3 supermotif peptide) [HER2/neu peptide, position 182, 9 amino acids]
[6]
  relative binding ratio: 0.0005 ratio (IC50 of standard peptide / IC50 of test peptide)
[7]
  relative binding ratio: 0.0004 ratio (IC50 of standard peptide / IC50 of test peptide)

## GATLERPKTL (Synthetic peptide) [HER2/neu A02 supermotif peptide, position 1164, 10 amino acids]
[10]
  relative binding ratio: 0.0002 ratio (IC50 of standard peptide / IC50 of test peptide)

B5: Her2/neu.642.F1I10 (peptide)
peptide: FPAEQRASPI
notes: 10-mer analog of the HER2/neu peptide starting at position 642
[2]
  IC50: 56 nM
[3]
  IC50: 98 nM
[4]
  IC50: 3.1 nM
[5]
  IC50: 4900 nM

## GASCVTACPY [HER2/neu peptide, position 292, 10 amino acids]
[1]
  relative binding ratio (IC50 of standard peptide / IC50 of test peptide): 0.0001 relative binding ratio

## TVPWDQLFR (Synthetic A3 supermotif peptide) [HER2/neu peptide, position 479, 9 amino acids]
[6]
  relative binding ratio: 0.0072 ratio (IC50 of standard peptide / IC50 of test peptide)
[7]
  relative binding ratio: 0.0006 ratio (IC50 of standard peptide / IC50 of test peptide)

## GMSYLEDVR [HER2/neu peptide, position 832, 9 amino acids]
[1]
  relative binding ratio (IC50 of standard peptide / IC50 of test peptide): 0.0002 relative binding ratio

B6: Her2/neu.706.F1I10 (peptide)
peptide: FPNQAQMRII
notes: 10-mer analog of the HER2/neu peptide starting at position 706
[2]
  IC50: 59 nM
[3]
  IC50: 76 nM
[4]
  IC50: 290 nM
[5]
  IC50: 490 nM

B7: Her2/neu.760.F1I9 (peptide)
peptide: FPKANKEII
notes: 9-mer analog of the HER2/neu peptide starting at position 760
[2]
  IC50: 39 nM
[3]
  IC50: 55 nM
[4]
  IC50: 8.5 nM
[5]
  IC50: 7150 nM

## HVVPWDQLFK (synthetic analog peptide) [Her2/neu.478.V2K10]
[11]
  IC50: 8.9 nM
[12]
  IC50: 180 nM

## PTHDPSPLQR [HER2/neu peptide, position 1102, 10 amino acids]
[6]
  relative binding ratio: 0.0001 ratio (IC50 of standard peptide / IC50 of test peptide)
[7]
  relative binding ratio: 0.0003 ratio (IC50 of standard peptide / IC50 of test peptide)

## QVRQVPLQR (Synthetic A3 supermotif peptide) [HER2/neu peptide, position 90, 9 amino acids]
[6]
  relative binding ratio: 0.0005 ratio (IC50 of standard peptide / IC50 of test peptide)
[7]
  relative binding ratio: 0.0029 ratio (IC50 of standard peptide / IC50 of test peptide)

## GTQRCEKCSK [HER2/neu peptide, position 327, 10 amino acids]
[1]
  relative binding ratio (IC50 of standard peptide / IC50 of test peptide): 0.61 relative binding ratio

## GLACHQLCAR [HER2/neu peptide, position 508, 10 amino acids]
[1]
  relative binding ratio (IC50 of standard peptide / IC50 of test peptide): 0.0001 relative binding ratio

## FSPAFDNLY [HER2/neu peptide, position 1213, 9 amino acids]
[1]
  relative binding ratio (IC50 of standard peptide / IC50 of test peptide): 0.0002 relative binding ratio

## GVGSPYVSR [HER2/neu peptide, position 776, 9 amino acids]
[1]
  relative binding ratio (IC50 of standard peptide / IC50 of test peptide): 0.0066 relative binding ratio

## HADGGKVPIK [HER2/neu peptide, position 878, 10 amino acids]
[1]
  relative binding ratio (IC50 of standard peptide / IC50 of test peptide): 0.0008 relative binding ratio

## NIQEFAGCKK (Synthetic A3 supermotif peptide) [HER2/neu peptide, position 360, 10 amino acids]
[6]
  relative binding ratio: 0.0056 ratio (IC50 of standard peptide / IC50 of test peptide)
[7]
  relative binding ratio: 0.0003 ratio (IC50 of standard peptide / IC50 of test peptide)

## GASPGGLREL (Synthetic peptide) [HER2/neu A02 supermotif peptide, position 131, 10 amino acids]
[10]
  relative binding ratio: 0.0001 ratio (IC50 of standard peptide / IC50 of test peptide)

## GAVENPEYL (Synthetic peptide) [HER2/neu A02 supermotif peptide, position 1189, 9 amino acids]
[10]
  relative binding ratio: 0.0002 ratio (IC50 of standard peptide / IC50 of test peptide)

## VARCPSGVK (Synthetic A3 supermotif peptide) [HER2/neu peptide, position 597, 9 amino acids]
[6]
  relative binding ratio: -0.0002 ratio (IC50 of standard peptide / IC50 of test peptide)
[7]
  relative binding ratio: 0.01 ratio (IC50 of standard peptide / IC50 of test peptide)

## GSGAFGTVY [HER2/neu peptide, position 727, 9 amino acids]
[1]
  relative binding ratio (IC50 of standard peptide / IC50 of test peptide): 0.0001 relative binding ratio

## GAGGMVHHR [HER2/neu peptide, position 1038, 9 amino acids]
[1]
  relative binding ratio (IC50 of standard peptide / IC50 of test peptide): 0.0043 relative binding ratio

B8: Her2/neu.65 (10-mer) (peptide)
peptide: LPTNASLSFL
notes: native HER2/neu peptide from position 65
[8]
  IC50: 290 nM
[9]
  IC50: 2500 nM

## WPDSLPDI (analog peptide) [Her2/neu.415.I8]
[8]
  IC50: 71 nM
[9]
  IC50: 5000 nM
